Assays:
[1] = target: HIV-1 Gag (Pr55), immature Gag lattice of NL4-3 VLPs (HIV-1 (NL4-3))
[2] = target: HIV-1 Gag (Pr55), immature Gag lattice of NL4-3 VLPs (HIV-1 (NL4-3)); conditions: scale: mol HA-Halo-gt-EnvCT/mol NL4-3
[3] = target: HIV-1 Gag (Pr55), immature Gag lattice of NL4-3 VLPs (HIV-1 (NL4-3)); remark: listed apart in the source
[4] = target: HIV-1 Gag (Pr55), immature Gag lattice of NL4-3 VLPs (HIV-1 (NL4-3)); assay: co-sedimentation; immature VLPs from HEK293T stripped of membrane with 0.05% NP-40 (Env trimers) or 0.075% NP-40 (mCD4 chimeras) or PBS, 15 minutes at 25°C, sedimented through 20% sucrose at 60,000 x g, 4°C, 1 hour; pellets blotted for gp41, CD4 and Pr55

For “monomeric CD4-EnvCT 712YA chimera (from UniProt P01730 26-420)”, the incorporation into VLPs released from transduced A2.01 T cells (western blot), mCD4-EnvCT relative to mCD4-ΔCT [1] was 16.7 fold.
HA-Halo-gt-EnvCT (712YA) chimera showed a restriction of the incorporation of Env-712YA trimers into VLPs (gp41/Pr55 by western blot; HEK293T co-transfected with chimera and NL4-3 pol(-) Env-712YA plasmids at 0 to 1.375 mol/mol) [2] of 0.3 and a double exponential loss curve of the competitive inhibition of 712YA Env incorporation into VLPs; half-maximal inhibition [3] of 0.6 gp41/Pr55.
Substance “HIV-1 WT Env (NL4-3), gp120/gp41 trimer (complex)” has a percent co-sedimenting with Gag after detergent [4] of 10%.
